Drawing on PMC9059161, this text covers time to cleave half of casp3 (12 μM) by RHAU–casp9 (150 nM) without TERRA for 1 substance.

The target of the experiment is RHAU–casp9.

In turn, RHAU–casp9 (enzyme) displayed a time to cleave half of casp3 (12 μM) by RHAU–casp9 (150 nM) without TERRA of 120 min.
